Measured values taken from article doi:10.1101/2025.06.16.659917, “MTBP allosterically activates Cdk8-CycC kinase activity” (bioRxiv, 2025).

Biological target: T1, 6xHis-3xFLAG-Cdk8 wt (recombinant, full-length) (human, UniProt P49336 1-464)
T1 construct: Cdk8, human, full-length; Co-expressed with CycC, alone or together with MTBP(C) or Med12(N100); source: Sf9/Hi5 insect cells (baculovirus), purified (Ni-NTA, dialysis); not shown: 6xHis, N-terminal, kept
Assay: pull-down; co-expression in Sf9/Hi5 insect cells and co-purification on Ni-NTA agarose via the N-terminal 6His-tag on Cdk8; 20 mM HEPES pH 8.0, 150 mM NaCl, 2% glycerol, 0.1% Triton X-100, 0.5 mM TCEP, 20 mM imidazole; 4°C
Details: partners not purified

T1 sequence (P49336 whole entry): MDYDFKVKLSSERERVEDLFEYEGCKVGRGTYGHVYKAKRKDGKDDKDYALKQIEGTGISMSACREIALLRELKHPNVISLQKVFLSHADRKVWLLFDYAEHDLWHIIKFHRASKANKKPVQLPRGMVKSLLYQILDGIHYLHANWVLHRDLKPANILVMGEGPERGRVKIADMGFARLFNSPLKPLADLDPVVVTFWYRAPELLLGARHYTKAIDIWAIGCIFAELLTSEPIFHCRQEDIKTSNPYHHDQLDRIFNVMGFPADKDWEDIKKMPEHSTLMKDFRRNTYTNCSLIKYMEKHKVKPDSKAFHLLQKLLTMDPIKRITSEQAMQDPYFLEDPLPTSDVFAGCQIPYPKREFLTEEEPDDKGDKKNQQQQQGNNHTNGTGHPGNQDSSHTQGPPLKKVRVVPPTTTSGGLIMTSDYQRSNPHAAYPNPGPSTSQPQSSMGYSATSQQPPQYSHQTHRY

B1: Med12(N100) (recombinant Med12 residues 1-100) (domain or fragment, human, UniProt Q93074 1-100, looked up)
chain: MAAFGILSYEHRPLKRPRLGPPDVYPQDPKQKEDELTALNVKQGFNNQPAVSGDEHGSAKNVSFNPAKISSNFSSIIAEKLRCNTLPDTGRRKPQVNQKD
notes: Med12, human, residues 1-100; also called Med12-1-100; Med12(1-100); source: Sf9/Hi5 insect cells (baculovirus), co-expressed with Cdk8 and CycC, purified (Ni-NTA via Cdk8); also purified alone
binding result: binds
